From the Human Domainome abundance scans (Beltran et al. 2025) come the findings set out here.

The chains are these.
B1: REST corepressor 3, residues 87 to 134; numbered along this chain, Q9P2K3 (parent)
chain: DEWTVEDKVLFEQAFSFHGKSFHRIQQMLPDKTIASLVKYYYSWKKTR

± gives the uncertainty stated by the source.

In this data set the parent is B1. In words: abundance fitness (aPCA) (normalised: wild type 0, dead -1); higher = more abundant; growth selection in yeast, the domain comes from the species named. The settings on record: Homo sapiens.
For DEWTVEDKVLFEQIFSFHGKSFHRIQQMLPDKTIASLVKYYYSWKKTR [A14I], the abundance fitness is -0.655 ± 0.44.

As to DEWTVEDKVLFEQEFSFHGKSFHRIQQMLPDKTIASLVKYYYSWKKTR [A14E], the abundance fitness is -0.811 ± 0.46.

In the case of DEWTVEDKVLFEQKFSFHGKSFHRIQQMLPDKTIASLVKYYYSWKKTR [A14K], the abundance fitness was -0.393 ± 0.41.

Take DEWTVEDKVLFEQGFSFHGKSFHRIQQMLPDKTIASLVKYYYSWKKTR [A14G]: the abundance fitness is -0.73 ± 0.18.

Regarding DEWTVEDKVLFEQAFSFHGKSFHRIQQMLPDKTIASLVKYYYSWKKRR [T47R], the abundance fitness is -0.071 ± 0.22.

As for DEWTVEDKVLFEQAFSFHGKSFHRIQQMLPDKTIASLVKYYYSWKGTR [K46G], the abundance fitness was -0.202 ± 0.069.

As for DEWTVEDKVLFEQAFSFHGKSFHRIQQMLPDKTIASLVKYYYSWKETR [K46E], the abundance fitness is -0.575 ± 0.22.

Turning to DEWTVEDKVLFEQAFSFHGKSFHRIQQMLPDKTIASLVKYYYSWKPTR [K46P], the abundance fitness is -0.782 ± 0.26.

Take DEWTVEDKVLFEQAFSFHGKSFHRIQQMLPDKTIASLVMYYYSWKKTR [K39M]: the abundance fitness is -0.748 ± 0.2.

Consider DEWTVEDKVLFEQAFSFHGKSFHRIQQMLPDKTIASLVWYYYSWKKTR [K39W], for which the abundance fitness is -0.67 ± 0.38.

Take DEWTVEDKVLFEQAFSFHGNSFHRIQQMLPDKTIASLVKYYYSWKKTR [K20N]: the abundance fitness is -0.306 ± 0.27.

In the case of DEWTVEDKVLFEQAFSFHGSSFHRIQQMLPDKTIASLVKYYYSWKKTR [K20S], the abundance fitness was -0.393 ± 0.17.

With DEWTVEDKVLFEQAFSFHGCSFHRIQQMLPDKTIASLVKYYYSWKKTR [K20C], the abundance fitness is -0.337 ± 0.34.

Consider DEWTVEDKVLFEQAFSFHGRSFHRIQQMLPDKTIASLVKYYYSWKKTR [K20R], for which the abundance fitness is -0.544 ± 0.19.

In the case of DEWTVEDKVLFEQAFSFHGWSFHRIQQMLPDKTIASLVKYYYSWKKTR [K20W], the abundance fitness was -0.551 ± 0.33.

As to DEWTVEDKVLFEQAFSFHGKSFHRIQQMLPDKTIASLVKYYWSWKKTR [Y42W], the abundance fitness is 0.056 ± 0.076.

For DEWTVEDKVLFEQAFSFHGKSFHRIQQMLPDKTIASLVKYYGSWKKTR [Y42G], the abundance fitness is -0.036 ± 0.052.

As for DLWTVEDKVLFEQAFSFHGKSFHRIQQMLPDKTIASLVKYYYSWKKTR [E2L], the abundance fitness is -0.593 ± 0.3.

In the case of DYWTVEDKVLFEQAFSFHGKSFHRIQQMLPDKTIASLVKYYYSWKKTR [E2Y], the abundance fitness is -0.208 ± 0.32.

Consider DTWTVEDKVLFEQAFSFHGKSFHRIQQMLPDKTIASLVKYYYSWKKTR [E2T], for which the abundance fitness was -0.302 ± 0.26.

As for DKWTVEDKVLFEQAFSFHGKSFHRIQQMLPDKTIASLVKYYYSWKKTR [E2K], the abundance fitness was determined as 0.3 ± 0.17.

For DAWTVEDKVLFEQAFSFHGKSFHRIQQMLPDKTIASLVKYYYSWKKTR [E2A], the abundance fitness was -0.797 ± 0.33.

Regarding DEWTVEDKVLFEQAFSYHGKSFHRIQQMLPDKTIASLVKYYYSWKKTR [F17Y], the abundance fitness was -0.592 ± 0.37.

Regarding DEWTVEDKVLFEQAFSRHGKSFHRIQQMLPDKTIASLVKYYYSWKKTR [F17R], the abundance fitness amounted to 0.137 ± 0.083.

Turning to DEWTVEDKVLFEQAFSNHGKSFHRIQQMLPDKTIASLVKYYYSWKKTR [F17N], the abundance fitness is -0.208 ± 0.43.

On to DEWTVEDKVLFEQAFSFHGKSFHRIQQMLPDKTGASLVKYYYSWKKTR [I34G], for which the abundance fitness was -0.767 ± 0.11.

Regarding DEWTVEDKVLFEQAFSFHGKSFHRIQQMLPDKTHASLVKYYYSWKKTR [I34H], the abundance fitness was -0.73 ± 0.37.

As for DEWTCEDKVLFEQAFSFHGKSFHRIQQMLPDKTIASLVKYYYSWKKTR [V5C], the abundance fitness was -0.478 ± 0.37.

Take DEWTVEDKVLFEQAFSFHGKSFHRIQQMLPDKTIASLEKYYYSWKKTR [V38E]: the abundance fitness was -0.12 ± 0.16.

As to DEWTVEDKVLFEQAFSFHGKSFHRIQQMLPDKTIASLIKYYYSWKKTR [V38I], the abundance fitness is 0.279 ± 0.084.

In the case of DEWTVEDKVLFEQAFSFHGKSFHRIQQMLPDKTIASGVKYYYSWKKTR [L37G], the abundance fitness was -0.835 ± 0.19.

In the case of DEWTVEDKVLFEQAFSFHGKSFHRIQQMLPDKTIASAVKYYYSWKKTR [L37A], the abundance fitness is -0.673 ± 0.31.

Turning to DEWTVEDKVLFEQAFSFHGKSFHRIQQMLPDKTIASLVKYYYSWVKTR [K45V], the abundance fitness was -0.454 ± 0.22.

DEWTVEDKVLFEQAFSFHGKSFHRIQQMLPDKTIASLVKYYYSWEKTR [K45E]: the abundance fitness was -0.546 ± 0.29.

As for DEWTVEDKVLFEQAFSFHGKSFHRIQQMLPDKTIASLVKYYYSWWKTR [K45W], the abundance fitness is -0.61 ± 0.22.

With DEWTVEDKVLFEQAFSFHGKSFHRIVQMLPDKTIASLVKYYYSWKKTR [Q26V], the abundance fitness was -0.692 ± 0.26.

Take DEWTVEDKVLCEQAFSFHGKSFHRIQQMLPDKTIASLVKYYYSWKKTR [F11C]: the abundance fitness was -0.265 ± 0.26.

As to DEWTVEDKVLFVQAFSFHGKSFHRIQQMLPDKTIASLVKYYYSWKKTR [E12V], the abundance fitness was -0.801 ± 0.22.

For DEWTVEDKVLFIQAFSFHGKSFHRIQQMLPDKTIASLVKYYYSWKKTR [E12I], the abundance fitness was -0.24 ± 0.29.

Regarding DEWTVEDKVLFQQAFSFHGKSFHRIQQMLPDKTIASLVKYYYSWKKTR [E12Q], the abundance fitness was -0.528 ± 0.46.

As to DEWTVEDKVLFKQAFSFHGKSFHRIQQMLPDKTIASLVKYYYSWKKTR [E12K], the abundance fitness is -0.643 ± 0.34.

For the variant DEWTVEDKVLFEQAFSFHGKSFHGIQQMLPDKTIASLVKYYYSWKKTR [R24G], the abundance fitness is -0.74 ± 0.37.

Consider DEWTVEDKVLFEQAFSFHGKSFHRIQQMLPDGTIASLVKYYYSWKKTR [K32G], for which the abundance fitness was -0.89 ± 0.075.

Regarding DEWTVEDKVLFEQAFSFHGKSFHRIQQMLPDQTIASLVKYYYSWKKTR [K32Q], the abundance fitness is -0.888 ± 0.18.

As for DEWTVEDKVLFEQAFSFHGKSFHRIQQMLPDNTIASLVKYYYSWKKTR [K32N], the abundance fitness was -0.776 ± 0.093.

For DEWTVEDKVLFEQAFSFHGKCFHRIQQMLPDKTIASLVKYYYSWKKTR [S21C], the abundance fitness is 0.164 ± 0.15.

Take DEWTVEDKVLFEQAFSFHGKGFHRIQQMLPDKTIASLVKYYYSWKKTR [S21G]: the abundance fitness is -1.12 ± 0.42.

DEWTVEDKVLFEQAFSFHGKMFHRIQQMLPDKTIASLVKYYYSWKKTR [S21M]: the abundance fitness is -0.344 ± 0.21.

DEWTVEDKVLFEQAFSFHGKEFHRIQQMLPDKTIASLVKYYYSWKKTR [S21E]: the abundance fitness was 0.261 ± 0.13.

With DEWTVEDKVKFEQAFSFHGKSFHRIQQMLPDKTIASLVKYYYSWKKTR [L10K], the abundance fitness was found to be 0.546 ± 0.15.

As for DEWTVEDKVLFEQAFSFHGKSFHRIQQMLPDKTIAKLVKYYYSWKKTR [S36K], the abundance fitness is -0.627 ± 0.37.

As for DEWTVEDKVLFEQAFSFHGKSFHRIQQMLPDKTIARLVKYYYSWKKTR [S36R], the abundance fitness was -0.478 ± 0.21.

For DEWTVEDKVLFEQAFSFHGKSFHRIQQMLPDKTIAWLVKYYYSWKKTR [S36W], the abundance fitness was -0.825 ± 0.42.

DEWTVEDKVLFEQAFSFHGKSFHRIQQMLPDKTIAGLVKYYYSWKKTR [S36G]: the abundance fitness is -0.167 ± 0.093.
